PMC3420232

Legend:
[1] = biological target: TRAILR1-Fas chimeric receptor (human) (UniProt O00220); assay: radioligand binding; competition on cells: 4x10^5 murine fibroblasts expressing the (chimeric) TRAIL receptor in PFA (PBS, 2% FCS, 0.002% sodium azide), 83 ng/ml 125I-TRAIL with or without unlabeled recombinant human TRAIL (83-5300 ng/ml), 4 hours on ice; cells spun through phthalate oil; 68 kDa used for TRAIL
[2] = biological target: TRAILR2-Fas chimeric receptor (human) (UniProt O14763); assay: as above
[3] = biological target: TNFR1-TRAILR1-Fas chimeric receptor (TM1) (human) (UniProt P19438); assay: radioligand binding; equilibrium (saturation) binding on cells: 2x10^5 murine fibroblasts expressing the receptor in PFA (PBS, 2% FCS, 0.002% sodium azide), 125I-TNF 0.25-12.5 ng/ml, 2 h on ice; non-specific binding with 200-fold excess of unlabeled protein; cells spun through phthalate oil; one site binding hyperbola; 51 kDa used for TNF; apparent
[4] = biological target: TNFR1-TRAILR2-Fas chimeric receptor (TM2) (human) (UniProt P19438); assay: as above

| IC50 [1] | IC50 [2] | Kd [3] | Kd [4] | Substance |
| --- | --- | --- | --- | --- |
| 0.0168 µM | 0.0055 µM |  |  | Flag-tagged recombinant human TRAIL (sTRAIL), unlabeled (from UniProt P50591 95-281) (ligand) |
|  |  | 0.225 µM | 0.071 µM | 125I-labeled recombinant human TNF (from UniProt P01375 77-233) (ligand) |
